This note sets out measurements from patent US20180362629A1 (ZOETIS BELGIUM S A, published 2018).

Assay [1] deals with T1, recombinant canine β NGF (canine, UniProt Q29074 110-229 (pig entry)).
T1 chain: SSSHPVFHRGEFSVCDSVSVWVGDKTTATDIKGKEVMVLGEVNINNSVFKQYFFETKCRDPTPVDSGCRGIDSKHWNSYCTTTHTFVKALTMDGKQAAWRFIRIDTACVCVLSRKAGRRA
Nature of the assay: cell-based or functional assay.

In assay [2] the target is T2, recombinant canine β NGF (canine, UniProt Q29074 110-229 (pig entry)).
T2 chain: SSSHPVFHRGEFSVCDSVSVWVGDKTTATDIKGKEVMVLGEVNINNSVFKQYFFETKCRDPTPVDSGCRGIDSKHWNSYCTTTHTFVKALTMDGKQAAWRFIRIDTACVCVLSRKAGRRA
Nature of the assay: cell-based or functional assay.

For assay [3], the target named is T2, recombinant canine β NGF. Nature of the assay: SPR (Biacore T100), antibody captured on goat anti-canine IgG, canine NGF injected; Expt 1. On the procedure: (§1) Purified mouse/canine chimeric antibodies and caninized antibodies were analyzed for affinity to canine NGF using a Biacore T100 instrument. Goat anti Canine IgG (Southern Biotech) was immobilized at 5000-10000 RU on a CM5 chip using an amine coupling procedure according to the manufacturer's instructions (Biacore). […] The association rate was monitored for 5 min and the dissociation rate was monitored for 10-20 min. The chip surface was regenerated using 50-75 ul 10 mM glycine pH 1.5 at a flow rate of 50-100 ul/min. Data was analyzed using Biaevaluation T100 software version 2.0.2, software, GE Healthcare Life Sciences (Piscataway, N.J.). Overall affinity parameters established for mouse/canine chimeric antibodies is summarized in Table 22 and for caninized antibodies in Table 23. […] The overall KDs of the mouse/canine anti-NGF mAbs range from about 1300 pM to 1.6 pM. […] The overall KDs of the caninized anti-NGF mAbs range from about 42 pM to 1.2 pM.

Assay [4] deals with T2, recombinant canine β NGF. The assay is described as follows: SPR (Biacore T100), antibody captured on goat anti-canine IgG, canine NGF injected; Expt 2. On the procedure: as §1
For assay [5], the target named is T2, recombinant canine β NGF. Nature of the assay: SPR (Biacore T100), antibody captured on goat anti-canine IgG, canine NGF injected; Average. On the procedure:
as §1

B1: Mu77 Canine IgG1/k Chimera (antibody, V domains shown)
VH: EVQLQQSGAELVKPGASVKLSCTASGFNIKDTYIYWVKQRPEQGLEWIGRIDPANGNTIYASKFQGKASITADTSSNTAYMQLSSLTSGDTAVYYCAGYGYYAYWGQGTTLTVSS
VL: DVVLTQTPLSLPVNIGDQASISCKSTKSLLNGDGFTYLDWYLQKPGQSPQLLIYLVSNRFSGVPDRFSGSGSGTDFTLKISRVEAEDLGVYYCFESNYLFTFGSGTKLEMKR
With B1, the “TF-1 cell proliferation potency (70 pM canine NGF)” value (“TF-1 cell proliferation potency” for short) with recombinant canine β NGF [1] was less than 50 pM.

B2: 72.3 Canine IgG1/k (antibody, V domains shown)
VH: EVHLVESGGDLVKPGGSLRLSCVASGFTFSDYYMFWIRQSPGKGLEWVATISDGGSYTYYTDNVKGRFTISRDNANNNLYLQMNSLKAEDTAVYYCAKDWSDSEGFAYWGQGTLVTVSS
VL: DVLMTQTPPSLSVSPREPASISCRSSQSIVQSNGNTYLEWYLQKPGQSPKLLIYKVSNRFSGVPDRFSGSGSGTDFTLRISRVEADDTGVYYCFQGSHVPFTFGAGTKVELKR
For B2, in the assay with recombinant canine β NGF [2], the “IC50, canine NGF-induced TF-1 cell proliferation (70 pM canine NGF)” value (from here on “IC50 … (70 pM canine NGF)”) amounted to 0 nM.

B3: 72.4 Canine IgG1/k (antibody, V domains shown)
VH: EVHLVESGGDLVKPGGSLRLSCVASGFTFSDYYMFWVRHSPGKGLEWVATISDGGSYTYYTDNVKGRFTISRDNANNTLYLQMNSLRAEDTAVYYCAKDWSDSEGFAYWGQGTLVTVSS
VL: DIVMTQTPPSLSVSPREPASISCRSSQSIVQSNGNTYLEWYLQKPGQSPKLLIYKVSNRFSGVPDRFSGSGSGTDFTLRISRVEADDTGVYYCFQGSHVPFTFGAGTKVELKR
As for B3, the “IC50 … (70 pM canine NGF)” value with recombinant canine β NGF [2] amounted to 0 nM.

B4: PR-1254982 (antibody, mouse IgG1, V domains shown)
VH: QVQLKESGPGLVAPSQSLSITCTVSGFSLTGYNINWVRQPPGKGLEWLGMIWGYGDTDYNSALKSRLSISKDNSKSQVFLKMNSLQTDDTARYYCARDHYGGNDWYFDVWGTGTTVTVSS
VL: DIQMTQTTSSLSASLGDRVTITCRASQDITNYLNWYQQKPDGTVKLLIYYTSRLHSGVPSRFSGSGSGTDYSLTISNLDQEDIATYFCQQGKTLPRTFGGGTKLEIKR
On to B4, for which, in the assay with recombinant canine β NGF [1], the “PathHunter IC50 (441 pM canine NGF)” value was less than 1 nM and the “SureFire cellular pERK IC50 (128 pM canine NGF)” value (from here on “SureFire cellular pERK IC50”) is less than 1 nM.

B5: Mu82 Canine IgG1/k Chimera (antibody, V domains shown)
VH: QVQLKESGPGLVAPSQSLSITCTVSGFSLTGYNINWVRQPPGKGLEWLGMIWGYGDTDYNSALKSRLSISKDNSKSQVFLKMNSLQTDDTARYYCARDHYGGNDWYFDVWGTGTTVTVSS
VL: DIQMTQTTSSLSASLGDRVTITCRASQDITNYLNWYQQKPDGTVKLLIYYTSRLHSGVPSRFSGSGSGTDYSLTISNLDQEDIATYFCQQGKTLPRTFGGGTKLEIKR
As to B5, the “TF-1 cell proliferation potency” value in the assay with recombinant canine β NGF [1] was less than 50 pM.

B6: 77.4 Canine IgG1/k (antibody)
heavy: EVQLVQSAAEVKKPGASVKVSCKASGYIFIDTYIYWVKQAPGAGLEWMGRIDPANGNTIYASKFQGRVTLTADTSTNTVYMELSNLRTEDTAVYYCAGYGYYAYWGQGTLVTVSSASTTAPSVFPLAPSCGSTSGSTVALACLVSGYFPEPVTVSWNSGSLTSGVHTFPSVLQSSGLHSLSSMVTVPSSRWPSETFTCNVVHPASNTKVDKPVFNECRCTDTPPCPVPEPLGGPSVLIFPPKPKDILRITRTPEVTCVVLDLGREDPEVQISWFVDGKEVHTAKTQSREQQFNGTYRVVSVLPIEHQDWLTGKEFKCRVNHIDLPSPIERTISKARGRAHKPSVYVLPPSPKELSSSDTVSITCLIKDFYPPDIDVEWQSNGQQEPERKHRMTPPQLDEDGSYFLYSKLSVDKSRWQQGDPFTCAVMHETLQNHYTDLSLSHSPGK
light: DLVLTQTPRSLSVSPGETASISCKSTKSLLNGDGFTYLDWYRQKPGQSPQLLIYLVSNRFSGVPDRFSGSGSGTDFTLRISRVEADDTGLYYCFESNYLFTFSQGTNLEMKRNDAQPAVYLFQPSPDQLHTGSASVVCLLNSFYPKDINVKWKVDGVIQDTGIQESVTEQDKDSTYSLSSTLTMSSTEYLSHELYSCEITHKSLPSTLIKSFQRSECQRVD
In the case of B6, in the assay with recombinant canine β NGF [2], the “IC50 … (70 pM canine NGF)” value worked out at 0 nM.

B7: 73.2 Canine IgG1/k (antibody, V domains shown)
VH: QVQLVQSAAEVKKPGASVKVSCKASGYTFTNYWMHWVQQAPGAGLEWIGRIDPYGGGTKHNEKFKRRATVTADKSTSTAYMELSNLRTEDTAVYYCTRSGYDYYFDVWGQGTLVTVSS
VL: DIQMTQTPLSLSASPGESASITCRASENIYSFLAWHRQKPGQSPQLLVYNANTLAEGVPSRFSGSGSGTQFTLRISRVEDEDAGLYYCQHHFGTPFTFGQGTKLEIKR
notes: The variable/constant junction was not checked; also called PR-1313520; PR-13113520
Regarding B7, the “IC50 … (70 pM canine NGF)” value with recombinant canine β NGF [2] amounted to 0.422 nM. Also, in the assay with recombinant canine β NGF [3], the Kd was 44 pM, the koff stood at 0.00028 s⁻¹ and the kon amounted to 6.3e+06 M⁻¹ s⁻¹. In addition, in the assay with recombinant canine β NGF [4], the Kd was 42 pM, the koff worked out at 0.00029 s⁻¹ and the kon turned out to be 6.9e+06 M⁻¹ s⁻¹. Moreover, in the assay with recombinant canine β NGF [5], the Kd was found to be 43 pM, the koff was 0.00029 s⁻¹ and the kon came out at 6.6e+06 M⁻¹ s⁻¹.

B8: 73.4 Canine IgG1/k (antibody, V domains shown)
VH: EVQLVQSAAEVKKPGASVKVSCKASGYIFINYWMHWVQQAPGAGLEWMGRIDPYGGGTKHNEKFKRRVTLTADKSTSTVYMELSNLRTEDTAVYYCTRSGYDYYFDVWGQGTLVTVSS
VL: DIQMTQTPLSLSASPGESASISCRASENIYSFLAWHRQKPGQSPQLLIYNANTLAEGVPSRFSGSGSGTQFTLRISRVEDEDAGLYYCQHHFGTPFTFGQGTKLEIKR
As for B8, the “IC50 … (70 pM canine NGF)” value with recombinant canine β NGF [2] worked out at 0 nM.

B9: 77.3 Canine IgG1/k (antibody, V domains shown)
VH: EVQLVQSAAEVKKPGASVKVSCKASGFNIKDTYIYWVKQAPGAGLEWIGRIDPANGNTIYASKFQGKASITADTSTNTAYMELSNLRTEDTAVYYCAGYGYYAYWGQGTLVTVSS
VL: DVVLTQTPRSLSVSPGETASISCKSTKSLLNGDGFTYLDWYRQKPGQSPQLLIYLVSNRFSGVPDRFSGSGSGTDFTLRISRVEADDTGLYYCFESNYLFTFGQGTNLEMKR
For B9, the “IC50 … (70 pM canine NGF)” value in the assay with recombinant canine β NGF [2] turned out to be 0.625 nM.

B10: 82.4 Canine IgG1/k (antibody, V domains shown)
VH: EVQLQESGPGLVKPSQTLSLTCTVSGGSVTGYNINWIRQRPDRGLEWMGMIWGYGDTDYNSALKSRISITKDNTKSQLFLQLTSTTTEDTAVYYCARDHYGGNDWYFDVWGQGTLVTVSS
VL: DIQMTQTPLSLSASPGESASISCRASQDITNYLNWYRQKPGQSPKLLIYYTSRLHSGVPSRFSGSGSGTDYTLRISRVEDEDAGLYFCQQGKTLPRTFGQGTKLEIKR
notes: The variable/constant junction was not checked; also called PR-1313521; PR-13113521
Turning to B10, the “IC50 … (70 pM canine NGF)” value with recombinant canine β NGF [2] worked out at 16 pM. Further, in the assay with recombinant canine β NGF [3], the Kd amounted to 1.2 pM, the off-rate (koff) amounted to 1.1e-05 s⁻¹ and the kon amounted to 8.6e+06 M⁻¹ s⁻¹. In addition, in the assay with recombinant canine β NGF [4], the Kd turned out to be 1.5 pM, the koff came to 1.2e-05 s⁻¹ and the kon was found to be 7.7e+06 M⁻¹ s⁻¹. In addition, in the assay with recombinant canine β NGF [5], the Kd worked out at 1.4 pM, the koff came out at 1.2e-05 s⁻¹ and the kon amounted to 8.2e+06 M⁻¹ s⁻¹.

B11: PR-1254973 (antibody, mouse IgG2b, V domains shown)
VH: QVQLQQPGAELVKPGASVKLSCKASGYTFTNYWMHWVKQRPGQGLEWIGRIDPYGGGTKHNEKFKRKATVTADKSSSTAYILLSSLTSEDSAVYYCTRSGYDYYFDVWGTGTTVTVSS
VL: DIQMTQSPASLSASVGETVTVTCRASENIYSFLAWHQQKQGKSPQLLVYNANTLAEGVPSRFSGSGSGTQFSLKINSLQPEDFGSYYCQHHFGTPFTFGSGTKLEIKR
Regarding B11, in the assay with recombinant canine β NGF [1], the “PathHunter IC50 (441 pM canine NGF)” value was less than 1 nM and the “SureFire cellular pERK IC50” value is less than 1 nM.

B12: Mu73 Canine IgG1/k Chimera (antibody, V domains shown)
VH: QVQLQQPGAELVKPGASVKLSCKASGYTFTNYWMHWVKQRPGQGLEWIGRIDPYGGGTKHNEKFKRKATVTADKSSSTAYILLSSLTSEDSAVYYCTRSGYDYYFDVWGTGTTVTVSS
VL: DIQMTQSPASLSASVGETVTVTCRASENIYSFLAWHQQKQGKSPQLLVYNANTLAEGVPSRFSGSGSGTQFSLKINSLQPEDFGSYYCQHHFGTPFTFGSGTKLEIKR
As for B12, in the assay with recombinant canine β NGF [1], the “TF-1 cell proliferation potency” value was less than 50 pM.

B13: PR-1254981 (antibody, mouse IgG1, V domains shown)
VH: EVQLVESGGGAVKPGGSLTLSCAASGFTFSNHYMYWVRQTPEKRLEWVASISDGGAYTFYPDTVKGRFTISRDNVNNNLYLQMRHLKSEDTAMYYCTREESANNGFAFWGQGTLVTVSA
VL: DVLMTQTPLSLPVSLGDQASISCRSSQSILHSNGNTYLEWYLQKPGQSPNLLIYRVSNRFSGVPDRFSGSGSGTDFTLKISRVEAEDLGVYYCFQGAHVPFTFGSGTKLEIKR
As to B13, in the assay with recombinant canine β NGF [1], the “PathHunter IC50 (441 pM canine NGF)” value is less than 1 nM and the “SureFire cellular pERK IC50” value is less than 1 nM.

B14: Mu81 Canine IgG1/k Chimera (antibody, V domains shown)
VH: EVQLVESGGGAVKPGGSLTLSCAASGFTFSNHYMYWVRQTPEKRLEWVASISDGGAYTFYPDTVKGRFTISRDNVNNNLYLQMRHLKSEDTAMYYCTREESANNGFAFWGQGTLVTVSA
VL: DVLMTQTPLSLPVSLGDQASISCRSSQSILHSNGNTYLEWYLQKPGQSPNLLIYRVSNRFSGVPDRFSGSGSGTDFTLKISRVEAEDLGVYYCFQGAHVPFTFGSGTKLEIKR
B14: in the assay with recombinant canine β NGF [1], the “TF-1 cell proliferation potency” value was less than 50 pM.
